Test results as given in patent US20120039810, “APTAMER-CONTAINING COMPOSITIONS AND METHODS FOR TARGETING E-SELECTIN” (published 2012).

Tests used:
P-selectin = P-selectin (Homo sapiens, UniProt P16109 P16109:42-771); assay: EMSA; estimated; PBS with Ca2+ and Mg2+, 5 mM MgCl2, 1% NP40
Procedure: Equal amounts of ESTA-1 (4.6 pmoles) were incubated with increasing concentrations of the recombinant selectin proteins (0-19 pmoles) in a total volume of 10.5 μl of PBS supplemented with Ca2+ and Mg2+, 5 mM MgCl2, and 1% NP40 at room temperature for 45 minutes. The reaction mixtures were loaded onto 6% polyacrylamide tris borate gels and run at 100 V for 90 minutes at 4° C. The gel was stained with SYBR Gold nucleic acid staining dye and visualized using the Fluor Chem 8800 chemimager (Alpha Innotech). Protein-bound TA and unbound TA were quantified using ImageJ software. The binding curves were generated assuming a single binding site curve fits using the Graph Pad Prism software.
To evaluate the binding affinity of ESTA-1 to all selectins, an electrophoretic mobility shift assay (EMSA) was utilized. To determine the binding constant, fixed amounts of ESTA-1 was mixed with increasing amounts of recombinant protein (E-, P-, and L-selectin). ESTA-1 (4.6 pmoles) and recombinant human selectin protein (up to 19 pmoles) were incubated and subjected to electrophoresis at 4° C. The gels were stained with SYBR Gold nucleic acid stain and densitometric analysis of the unbound ESTA-1 was plotted using E-selectin or P-selectin recombinant protein. […] Based on the densitometric analysis, the binding constant calculated for the ESTA-1 binding to E-selectin was 47 nM (FIG. 11A). […]

[1] = biological target: T1, E-selectin on ES-Endo cells (Tet-on HMVEC) (UniProt P16581 P16581:22-610); assay: cell_activity; inhibition of HL-60 adhesion to ES-Endo, 4 C; 80% at 100 nM
T1 sequence: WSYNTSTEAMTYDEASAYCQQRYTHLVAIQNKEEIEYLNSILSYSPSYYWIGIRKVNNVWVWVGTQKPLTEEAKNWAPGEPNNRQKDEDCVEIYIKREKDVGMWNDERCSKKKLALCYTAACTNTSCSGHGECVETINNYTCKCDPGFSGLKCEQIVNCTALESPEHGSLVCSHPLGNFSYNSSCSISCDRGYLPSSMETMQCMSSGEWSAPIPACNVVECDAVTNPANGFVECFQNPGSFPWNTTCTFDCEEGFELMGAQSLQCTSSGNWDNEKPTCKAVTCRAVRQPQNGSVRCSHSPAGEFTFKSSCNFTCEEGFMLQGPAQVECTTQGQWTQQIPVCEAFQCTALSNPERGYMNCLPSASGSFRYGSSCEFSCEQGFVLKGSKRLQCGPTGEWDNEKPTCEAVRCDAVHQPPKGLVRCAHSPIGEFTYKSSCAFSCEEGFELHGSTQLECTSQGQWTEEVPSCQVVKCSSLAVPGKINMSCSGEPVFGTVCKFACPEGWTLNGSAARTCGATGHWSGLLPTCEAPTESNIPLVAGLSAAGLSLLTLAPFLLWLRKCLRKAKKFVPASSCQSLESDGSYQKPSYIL
Procedure: On the basis of specific binding of ESTA-1 to E-selectin, a study was done to determine the effect of ESTA-1 on adhesion of sLe^X positive cells to endothelial cells. Confluent E-selectin expressing ES-Endo cells were incubated with doxycycline for 5 hours followed by ESTA-1 (50 nM, 100 nM) for 20 minutes. HL-60 cells a human promyelomonocytic cell line, or cells from two breast cancer cell lines (MDA-MB-231 and MDA-MB-468: 10^5 cells) suspended in RPMI containing 1% FBS were added to ES-Endo and incubated at 4° C. for 30 minutes with mild agitation. The unbound cells were washed off with RPMI containing 1% FBS. The number of cells that adhered to the ES-Endo was counted on at least 3 random areas using a light microscope (final magnification 100×) and expressed as the mean of triplicate experiments. […] HL-60 cell adhesion to ES-Endo increased by 5-fold when E-selectin expression was induced by doxycycline (FIG. 12A). Pretreatment of the E-selectin expressing ES-Endo with ESTA-1 inhibited HL-60 adhesion by 80% at 100 nM ESTA-1 (FIG. 12A). […] Lastly, we tested cytotoxicity associated with ESTA-1 treatment in ES-Endo cells. ES-Endo cells were first incubated with doxycycline for 5 hours and then with increasing concentration of ESTA-1 (up to 200 nM) for 48 hours. MTT assay was performed to test cell viability.

L-selectin = biological target: T2, L-selectin (Homo sapiens, UniProt P14151 P14151:39-332); assay: EMSA; binding not detectable under the same conditions
T2 sequence: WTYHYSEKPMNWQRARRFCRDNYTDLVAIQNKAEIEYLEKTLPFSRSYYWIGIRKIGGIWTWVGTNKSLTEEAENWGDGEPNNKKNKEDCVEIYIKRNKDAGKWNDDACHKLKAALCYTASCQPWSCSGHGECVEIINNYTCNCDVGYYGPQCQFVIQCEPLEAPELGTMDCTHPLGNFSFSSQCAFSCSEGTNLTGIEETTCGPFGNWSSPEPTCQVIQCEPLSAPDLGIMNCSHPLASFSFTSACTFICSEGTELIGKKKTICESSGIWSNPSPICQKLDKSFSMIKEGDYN
Excerpt: Protein-bound TA and unbound TA were quantified using ImageJ software. The binding curves were generated assuming a single binding site curve fits using the Graph Pad Prism software.
To evaluate the binding affinity of ESTA-1 to all selectins, an electrophoretic mobility shift assay (EMSA) was utilized. To determine the binding constant, fixed amounts of ESTA-1 was mixed with increasing amounts of recombinant protein (E-, P-, and L-selectin). ESTA-1 (4.6 pmoles) and recombinant human selectin protein (up to 19 pmoles) were incubated and subjected to electrophoresis at 4° C. The gels were stained with SYBR Gold nucleic acid stain and densitometric analysis of the unbound ESTA-1 was plotted using E-selectin or P-selectin recombinant protein. […] As expected, the amounts of ESTA-1/E-selectin complexes reached saturation at a molar ratio of 1:1, when both of the binding molecules are at a concentration of 500 nM. Based on the densitometric analysis, the binding constant calculated for the ESTA-1 binding to E-selectin was 47 nM (FIG. 11A). […] ESTA-1 binding to L-selectin was not detectable under the same conditions. […] To further validate the binding affinity of ESTA-1 under biological conditions, different concentrations of ESTA-1 (50-200 nM) were incubated with ES-Endo cells induced with doxycycline. […] ESTA-1 binding was analyzed by fluorescent imaging.

Chain of P-selectin (P16109 42-771, one chain of several): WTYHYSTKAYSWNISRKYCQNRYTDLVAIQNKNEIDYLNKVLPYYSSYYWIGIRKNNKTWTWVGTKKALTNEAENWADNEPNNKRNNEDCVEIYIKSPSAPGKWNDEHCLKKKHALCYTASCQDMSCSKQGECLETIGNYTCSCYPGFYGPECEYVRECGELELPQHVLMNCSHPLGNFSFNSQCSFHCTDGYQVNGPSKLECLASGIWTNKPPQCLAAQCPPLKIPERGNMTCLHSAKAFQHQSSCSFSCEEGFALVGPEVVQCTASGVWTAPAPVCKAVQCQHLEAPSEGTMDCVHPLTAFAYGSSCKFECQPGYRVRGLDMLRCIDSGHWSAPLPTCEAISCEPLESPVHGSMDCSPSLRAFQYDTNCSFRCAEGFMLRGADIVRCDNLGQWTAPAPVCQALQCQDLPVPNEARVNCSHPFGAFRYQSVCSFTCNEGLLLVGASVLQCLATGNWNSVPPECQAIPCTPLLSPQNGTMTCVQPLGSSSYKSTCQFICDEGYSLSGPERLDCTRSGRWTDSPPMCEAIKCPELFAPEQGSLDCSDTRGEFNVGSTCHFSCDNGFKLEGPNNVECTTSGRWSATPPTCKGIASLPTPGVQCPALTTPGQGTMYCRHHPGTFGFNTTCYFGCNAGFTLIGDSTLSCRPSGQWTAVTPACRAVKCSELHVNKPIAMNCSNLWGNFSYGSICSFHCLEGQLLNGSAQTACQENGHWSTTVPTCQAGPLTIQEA

B1: ESTA-1 (TA-1) (ssDNA)
DNA: CGCTCGGATCGATAAGCTTCGATCCCACTCTCCCGTTCACTTCTCCTCACGTCACGGATCCTCTAGAGCACTG
modifications: 5'-monothiophosphate (Rp) on all dA except in primer-binding region
Question: What does the source list for B1?
Answer: Kd (P-selectin): ~13 µM; IC50 [1]: ~0.063 µM; binding result (L-selectin): no binding
